According to article doi:10.1101/431494:

Key:
[1] = target: Haliangium ochraceum encapsulated ferritin as crystallised (PDB 5N5F) (Haliangium ochraceum) (UniProt D0LZ73); assay: crystal structure
[2] = target: Haliangium ochraceum encapsulated ferritin, residues 1-98, C-terminal hexa-histidine tagged variant (Haliangium ochraceum) (UniProt D0LZ73); assay: SDS-PAGE

stoichiometry N [1] | stoichiometry N [2] | Substance
10 |  | Haliangium ochraceum encapsulated ferritin as crystallised (PDB 5N5F) (from UniProt D0LZ73 1-98) (domain or fragment)
 | 2 | Haliangium ochraceum encapsulated ferritin, residues 1-98, C-terminal hexa-histidine tagged variant (from UniProt D0LZ73 1-98) (domain or fragment)
